Test results: publication PMC11109957

Biological target: OGG1 (UniProt O15527)
Experiment: co-IP, Western blot
Conditions: reference: wild type, KBrO3; sites S46,S53

For “SIRT2 (from UniProt Q8IXJ6) S46AS53A, KBrO3”, the “binding against the reference” value was “weaker”.
